Results on seven molecules are retold here after patent EP4534554A1 (Corregene Biotechnology Co., Ltd., dated 2025).

Assay [1] concerns the target T1, MAGE-A1 peptide on HLA-A*02:01 (human).
T1 peptide: KVLEYVIKV
The assay can be described thus: JKR9 reporter + peptide-loaded T2, 16 h; full-length, on cells.

For assay [2], the target named is MAGE-A1 target antigen peptide … presented by HLA-A*02:01 on cells (human). The assay can be described thus: cell-based or functional assay. The arrangement: EC50 Enhancement Factor: unit not given beside the values.

B1: ht27M1245 (TCR, V domains shown)
Valpha: GEDVEQSLFLSVREGDSSVINCTYTDSSQTYLYWYKQEPGAGLQLLTYIFSNMDMKQDQRLTVLLNKKDKHLSLRIADTQTGDSAIYFCAGSGGGTDKLIFGTGTRLQVFP
Vbeta: GAVVSQHPSWVICKSGTSVKIECRSLDFQATTMFWYRQFPKQSLMLMATSNEGSKATYEQGVEKDKFLINHASLTLSTLTVTSAHPEDSSFYICSAREPGQGPYEQYFGPGTRLTVT
B1: the EC50 of peptide in assay [1] turned out to be 554 nM. Moreover, in assay [2], the EC50 Enhancement Factor was 30 and the EC50 Value (M), JKR9 reporter activation by peptide-loaded T2 cells was determined as 5.54e-07 M.

B2: ht27M1002 (TCR, V domains shown)
Valpha: GEDVEQSLFLSVREGDSSVINCTYTDSSSTYLYWYKQEPGAGLQLLTYIFSNMDMKQDQRLTVLLNKKDKHLSLRIADTQTGDSAIYFCAGSGGGTDKLIFGTGTRLQVFP
Vbeta: GAVVSQHPSWVICKSGTSVKIECRSLDFQATTMFWYRQFPKQSLMLMATSNEGSKATYEQGVEKDKFLINHASLTLSTLTVTSAHPEDSSFYICSAREPGGGPYEQYFGPGTRLTVT
Consider B2, for which the EC50 of peptide in assay [1] is 1360 nM. Besides, in assay [2], the EC50 Enhancement Factor was 12 and the EC50 Value (M), JKR9 reporter activation by peptide-loaded T2 cells was 1.36e-06 M.

B3: ht27M1285 (TCR, V domains shown)
Valpha: GEDVEQSLFLSVREGDSSVINCTYTDSSSTYLYWYKQEPGAGLQLLTYIFSFMDMKQDQRLTVLLNKKDKHLSLRIADTQTGDSAIYFCAGSGGGTDKLIFGTGTRLQVFP
Vbeta: GAVVSQHPSWVICKSGTSVKIECRSLDFQATTMFWYRQFPKQSLMLMATSNEGSKATYEQGVEKDKFLINHASLTLSTLTVTSAHPEDSSFYICSAREPGQGPYEQYFGPGTRLTVT
For B3, the EC50 of peptide in assay [1] is 59.3 nM. In addition, in assay [2], the EC50 Enhancement Factor was 281 and the EC50 Value (M), JKR9 reporter activation by peptide-loaded T2 cells worked out at 5.93e-08 M.

B4: ht27M1414 (TCR, V domains shown)
Valpha: GEDVEQSLFLSVREGDSSVINCTYTDSSSTYLYWYKQEPGAGLQLLTYTWPHMDMKQDQRLTVLLNKKDKHLSLRIADTQTGDSAIYFCAGSGGGTDKLIFGTGTRLQVFP
Vbeta: GAVVSQHPSWVICKSGTSVKIECRSLDFQATTMFWYRQFPKQSLMLMATSNEGSKATYEQGVEKDKFLINHASLTLSTLTVTSAHPEDSSFYICSAREPGQGPYEQYFGPGTRLTVT
As to B4, the EC50 of peptide in assay [1] is 22.5 nM. Moreover, in assay [2], the EC50 Enhancement Factor came out at 739 and the EC50 Value (M), JKR9 reporter activation by peptide-loaded T2 cells worked out at 2.25e-08 M.

B5: ht27M1378 (TCR, V domains shown)
Valpha: GEDVEQSLFLSVREGDSSVINCTYADYLSTYLYWYKQEPGAGLQLLTYIFSNMDMKQDQRLTVLLNKKDKHLSLRIADTQTGDSAIYFCAGSGGGTDKLIFGTGTRLQVFP
Vbeta: GAVVSQHPSWVICKSGTSVKIECRSLDFQATTMFWYRQFPKQSLMLMATSNEGSKATYEQGVEKDKFLINHASLTLSTLTVTSAHPEDSSFYICSAREPGQGPYEQYFGPGTRLTVT
For the molecule B5, the EC50 of peptide in assay [1] is 74 nM. In addition, in assay [2], the EC50 Enhancement Factor stood at 225 and the EC50 Value (M), JKR9 reporter activation by peptide-loaded T2 cells amounted to 7.4e-08 M.

B6: ht27M1369 (TCR, V domains shown)
Valpha: GEDVEQSLFLSVREGDSSVINCTYTDSSSTYLYWYKQEPGAGLQLLTYIFAFESMKQDQRLTVLLNKKDKHLSLRIADTQTGDSAIYFCAGSGGGTDKLIFGTGTRLQVFP
Vbeta: GAVVSQHPSWVICKSGTSVKIECRSLDFQATTMFWYRQFPKQSLMLMATSNEGSKATYEQGVEKDKFLINHASLTLSTLTVTSAHPEDSSFYICSAREPGQGPYEQYFGPGTRLTVT
Consider B6, for which the EC50 of peptide in assay [1] is 76.6 nM. In assay [2], the EC50 Enhancement Factor was 218 and the EC50 Value (M), JKR9 reporter activation by peptide-loaded T2 cells was found to be 7.66e-08 M.

B7: ht27M1290 (TCR, V domains shown)
Valpha: GEDVEQSLFLSVREGDSSVINCTYTDSSSTYLYWYKQEPGAGLQLLTYIFSNMDMKQDQRLTVLLNKKDKHLSLRIADTQTGDSAIYFCAGSGGGTDKLIFGTGTRLQVFP
Vbeta: GAVVSQHPSWVICKSGTSVKIECRSLDFQATTMFWYRQFPKQSLMLMATSNEGSKATYEQGVEKDKFLINHASLTLSTLTVTSAHPEDSSFYICSARVNDGTYEQYFGPGTRLTVT
Turning to B7, in assay [1], the EC50 of peptide amounted to 32.4 nM. In assay [2], the EC50 Enhancement Factor was 711 and the EC50 Value (M), JKR9 reporter activation by peptide-loaded T2 cells came to 3.24e-08 M.
